This experiment has as its target F-actin (UniProt P68135). Nature of the experiment: cryoEM (raw images and 2D image averages); full-length myosin-5a with F-actin free in solution, flash frozen in the presence of ATP, low calcium concentration, no cargo adaptor molecules; 1 myosin molecule per 2.5 actin subunits.

For the substance “full-length myosin-5a (from UniProt Q99104 1-1853; P0DP26 1-149) (complex)”, the percent of myosin molecules attached (from counts per um actin) is less than 10% and the percent of observed myosin molecules attached by both heads to one actin filament was 55%.

The values above are taken from doi:10.1101/2023.07.16.549178.
